Laboratory results from patent publication US10272135B2, “Apolipoprotein O and fragments thereof for inducing apoptosis in a cancerous cell” (INSERM (INSTITUT NATIONAL DE LA SANTÉ ET DE LA RECHERCHE …, priority 2014, dated 2019).

Key:
[1] = tested on: cardiac myoblasts; test: Transmission electron microscopy of cardiac myoblasts; type: cell-based; details: ApoO cells
From the text: (§1) After ethical committee approval, all patients in this study gave written consent for sample collection and molecular analysis prior to inclusion. Patients were carefully selected by physicians from the Department of Cardiology, Toulouse University Hospital, prior to coronary by-pass surgery. Bioinformatics. Microarray expression data from human heart samples were downloaded from the GEO repository (GSE1145). This series consisted of 107 myocardial samples collected from patients undergoing cardiac transplantation whose failure arises from different etiologies (e.g. idiopathic dilated cardiomyopathy, ischemic cardiomyopathy, valvular cardiomyopathy, and hypertrophic cardiomyopathy) and from “normal” organ donors whose hearts cannot be used for transplants. Arrays were intensity normalized and hierarchical clustering (average group linkage, Pearson correlation, threshold r=0.8) was applied to identify groups of co-expressed genes. […] All ApoO sequences within the expression vectors were verified by DNA double strand sequencing using ABI PRISM®BigDye™ Terminator version 3.1 Ready reaction cycle sequencing kit (Life Technologies SAS, Villebon sur Yvette) and loaded on an ABI 3130XL DNA sequencing instrument (Life Technologies SAS, Villebon sur Yvette). […]

[2] = tested on: Bax; test: Bax mRNA levels in cardiac myoblasts; type: cell-based; details: ApoO cells vs control (FIG. 9f)
From the text: as §1

[3] = tested on: mouse heart; test: Cardiac specific human ApoO transgenic mice (ApoO-Tg); type: in vivo
From the text: After ethical committee approval, all patients in this study gave written consent for sample collection and molecular analysis prior to inclusion. Patients were carefully selected by physicians from the Department of Cardiology, Toulouse University Hospital, prior to coronary by-pass surgery. Bioinformatics. Microarray expression data from human heart samples were downloaded from the GEO repository (GSE1145). This series consisted of 107 myocardial samples collected from patients undergoing cardiac transplantation whose failure arises from different etiologies (e.g. idiopathic dilated cardiomyopathy, ischemic cardiomyopathy, valvular cardiomyopathy, and hypertrophic cardiomyopathy) and from “normal” organ donors whose hearts cannot be used for transplants. Arrays were intensity normalized and hierarchical clustering (average group linkage, Pearson correlation, threshold r=0.8) was applied to identify groups of co-expressed genes. ApoO expression levels were plotted for the 107 human hearts tested and used to define relevant molecular pathways using both Toppgene and Ingenuity Pathway Analysis (Ingenuity systems, Redwood City, Calif., USA). ApoO subcellular localization was predicted using Mitopred, mitoprot and YLoc. Animals: All animal Studies followed the INSERM Institute Animal Facility guidelines and were approved by the animal care committees of the INSERM I2MC UMR 1048. All animal procedures were performed according to the guidelines of the French Ministry of Agriculture. Animals were housed at the Toulouse I2MC animal facility in a room lit 12 h per day (6 AM-6 PM) at an ambient temperature of 22+/−1° C. Construction of ApoO Expression Vectors To overexpress human ApoO (pTT-ApoO), the ApoO coding sequence was amplified using primers hApoO5BamPTT (SEQ ID NO: 2) and hApoO3BamPTT (SEQ ID NO: 3) and cloned into the BamH1 site of pTT expression vector. pSNAP-ApoO was generated by PCR amplification of pTT-ApoO using primers SnapApoEcorV-F (SEQ ID NO: 4) and SnapApoEcorV-R (SEQ ID NO: 5) and cloned into the EcoRV site of pSNAP-Tag® (Ozyme, Saint-Quentin-en-Yvelines, France). pGEX2T-ApoO was constructed by PCR amplification of pTT-ApoO using hApoOpGEX1FBam (SEQ ID NO: 6) and hApoOpGEX1RSma (SEQ ID NO: 7) and cloned into the Bam HI/Sma I site of pGEX2T (Promega, Charbonnières-les-Bains). All primers used in this work were synthesized by Eurogentec France (Angers). All restriction enzymes used were from New England Biolabs (Ozyme, Saint-Quentin-en-Yvelines). All ApoO sequences within the expression vectors were verified by DNA double strand sequencing using ABI PRISM®BigDye™ Terminator version 3.1 Ready reaction cycle sequencing kit (Life Technologies SAS, Villebon sur Yvette) and loaded on an ABI 3130XL DNA sequencing instrument (Life Technologies SAS, Villebon sur Yvette). Cell Culture and Tranfection of H9C2 Cardic Myoblasts H9c2 were obtained from the European Collection of Cell Cultures (Salisbury, England). H9c2 cells were cultured in Dulbecco's modified Eagle medium (Life Technologies SAS, Villebon sur Yvette) adjusted to contain 1.5 g/liter sodium bicarbonate and supplemented with antibiotic-antimycotic solution (Life Technologies SAS, Villebon sur Yvette) and 10% fetal bovine serum (FBS, AbCys s.a., Paris). Cells were plated on 10-cm diameter tissue culture dish and grown in a 5% CO2 incubator at 37° C. with saturating humidity with medium changes every 2 days. H9c2 cardiomyoblasts were stably transfected by electroporation and pools of tranfectants were selected as previously published. Knock-Down of ApoO Overexpression shRNA used to knock-down ApoO gene expression and controls were from MISSION shRNA set; Sh2=TRCN 72707; Sh4=TRCN 72704; Sh5=TRCN 72705 (Sigma Aldrich, Saint-Quentin Fallavier) and used as recommended by generating pools of stable transfectants. Empty vector (no shRNA insert) control was also transfected and had no significant effect. […]

[4] = tested on: VDAC; test: Blue Native Page and GST pull-down with heart mitochondria protein extracts; type: binding, mouse; details: BN-PAGE and GST pull-down
From the text: as §1

B1: ApoO: 198-amino acid apolipoprotein, SEQ ID NO: 1; tested by overexpression from expression vectors or transgene (protein, listed as Homo sapiens)
chain: MFKVIQRSVGPASLSLLTFKVYAAPKKDSPPKNSVKVDELSLYSVPEGQSKYVEEARSQLEESISQLRHYCEPYTTWCQETYSQTKPKMQSLVQWGLDSYDYLQNAPPGFFPRLGVIGFAGLIGLLLARGSKIKKLVYPPGFMGLAASLYYPQQAIVFAQVSGERLYDWGLRGYIVIEDLWKENFQKPGNVKNSPGTK
[1]
  plasma membrane morphology (TEM): formation of blebs
[2]
  expression of Bax: increase
[3]; ApoO-Tg hearts
  cytochrome C oxidase activity in heart: increase
[3]; ApoO-Tg vs WT (FIG. 8a)
  diglyceride levels in heart: increased
[3]; ApoO-Tg vs WT (FIG. 8b)
  intracellular triglycerides in heart: did not significantly modify
[3]; ApoO-Tg vs WT (FIG. 9b)
  Bax expression in heart: enhanced
[3]; ApoO-Tg vs WT (FIG. 9c)
  Caspase-3 activity in heart: enhanced
[3]; hearts from ApoO-Tg mice
  ACSL activity in heart: significant increase
  fatty acid transporter expression in heart: significant increase
[3]; mitochondria isolated from ApoO-Tg mice hearts
  calcium retention capacity: significantly diminished
[4]
  interaction with VDAC: excluded any interaction
